These results are taken from publication PMC3650007, “Human Rotavirus VP6-Specific Antibodies Mediate Intracellular Neutralization by Binding to a Quaternary Structure in the Transcriptional Pore” (PLoS ONE, 2013).

For this assay, the target named is T1, VP6 fragment (VP6f), residues 147-339 (Rotavirus A, strain of the VP6 DNA …).
T1 construct: also called VP6 head domain construct
T1 chain: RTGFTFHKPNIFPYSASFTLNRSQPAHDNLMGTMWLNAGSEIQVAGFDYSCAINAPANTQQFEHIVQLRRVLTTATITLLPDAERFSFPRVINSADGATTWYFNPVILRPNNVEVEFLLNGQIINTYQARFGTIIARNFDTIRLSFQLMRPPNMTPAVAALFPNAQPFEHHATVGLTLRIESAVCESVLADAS
In words: HDX-MS. Conditions: both partners purified.

B1: RV6-26 Fab (Fab, V domains shown)
VH: EFQLVESGAEVKKPGASVKVSCKASGYSFTSYYVHWVREAPGEGLEWMGMINPSDGSTYYAQRFQPRVTMTRDTSTTTVFMEMSGLRSEDTAVYYCARGVVGATNEIDFWGQGTTVTVSS
VL: DIRLTQSPSSLSASVGDRVTITCRASQSISNYLNWYQKKPGQAPKLLIYAATSLQSGVPSRFSGSGSGTDFTLTISSVQPEDFATYYCQKTLRTWTFGQGTKVEIK
Turning to B1, the binding result is listed as “binds”.
